Assay results taken from the supplement of paper PMC10567573.

B1: S100A14 (parent)
chain: KIANLGSCNDSKLEFRSFWELIGE
B2: PLAGL1 (parent)
chain: EKPPSGTKEKKHQCDHCERCFYTR

Variants of: B1
Experiment: protein stability index of a GFP-peptide fusion (GPS, HEK-293T) (PSI 1-6); higher = more stable
Details: c terminus: a fixed tail appended
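Note: lentivirally expressed fusions sorted by FACS into six bins by GFP to DsRed ratio, PSI derived from sequencing read proportions per bin multiplied by bin number.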

Protein stability index of substitutions, site by site:
W19: Q 1.73, H 2.74, D 3.58, L 1.56, E 3.25, T 2.29, K 2.11, F 2.03, V 3.86, C 1.46, M 1.79, N 2.71, R 2.09, G 2.68, Y 1.78, A 1.89, S 1.87, I 1.97, P 3.25
S17: F 2.52, P 1.65, E 1.87, T 2.75, I 2.45, R 1.34, H 1.46, N 1.5, G 1.33, W 2.28, C 2.16, M 1.29, K 2.2, Y 1.84, D 1.95, Q 2.75, A 3.38, L 2.86
F18: Q 1.98, K 2.07, T 1.89, E 2.66, D 3.52, A 2.2, L 2.57, R 2.5, C 2.11, G 2.43, S 2.08, P 2.27, N 2.73, I 1.85, W 2.16, H 2.82, V 1.52, M 1.63, Y 1.97
E20: G 1.4, L 2.77, D 2.56, I 2.29, Q 1.62, F 2.77, V 1.73, R 2.45, Y 2.73, C 2.79, A 1.64, H 2.15, P 1.64, S 1.94, K 2.22, N 2.29, T 1.59, M 3.34
I22: T 2.25, A 2.59, M 1.82, Y 2, K 2.32, F 2.95, N 2.61, G 2.32, R 1.98, H 1.9, W 1.67, V 1.79, D 2.65, P 2.29, Q 2.24, L 1.94, C 1.9, E 3.19, S 2.28
R16: G 1.54, M 1.78, Q 1.98, Y 2.44, H 2.77, S 2.65, W 2.25, I 1.97, L 3.03, F 1.42, V 2.3, D 2.11, T 1.61, E 1.92, P 2.28, K 1.36, C 1.66, N 2.13
E24: M 2.27, P 1.7, T 1.9, G 1.36, L 1.05, H 2.8, A 2.15, Q 2.11, D 2.15, N 2.17, C 1.53, Y 1.84, R 1.37, S 1.78, F 1.88, I 2.86, W 2.1, K 2.06
G23: S 1.87, L 1.62, Y 1.75, V 2.18, T 2.28, D 1.75, Q 2.19, N 2.21, F 1.44, A 1.89, C 1.73, P 2.04, R 1.45, I 1.86, K 1.82, E 2.15, W 2.66, M 2.25, H 2.29
L21: P 2.59, S 1.86, R 1.94, T 2, E 2.08, N 2.55, H 1.9, D 2.57, F 2.16, M 1.23, G 2.33, W 1.18, C 1.62, Y 2.23, V 1.63, K 1.86, A 2.74, Q 1.76, I 1.54

Variants of: B2
Experiment: as above
Details: c terminus: a fixed tail appended

Protein stability index, by site and new letter:
K8: N 3.77, L 3.04, E 4.4, C 4.24, V 3.9, H 3.88, S 3.66, I 3.1, Q 4.78, R 3.48, Y 3.47, A 3.37, G 3.29, F 2.9, T 3.48, W 3.35, D 4.33, M 4.27, P 4.25
P3: M 3.41, C 3.98, L 3.32, K 3.6, D 4.19, Y 3.5, A 4.29, V 3.97, F 3.54, W 3.13, H 3.33, S 3.78, Q 3.8, I 3.58, R 3.75, N 3.94, G 3.63, E 3.83, T 3.68
S5: T 3.34, E 3.72, P 3.54, A 3.17, Y 3.57, R 3.29, M 3.48, H 3.83, V 3.83, F 3.19, L 3.75, D 4.16, K 3.88, I 3.97, W 3.1, G 3.53, N 3.79, Q 3.42, C 3.72
E9: H 3.37, F 3.26, S 3.32, Q 3.77, C 4.63, G 3.75, R 2.52, A 3.67, K 2.9, P 3.52, I 3.27, M 2.85, N 3.25, D 3.96, L 3
T7: V 4.06, M 3.56, E 3.79, G 3.69, F 3.91, D 3.77, N 3.6, A 3.44, H 3.85, R 3.44, L 3.67, K 3.28, S 3.54, Q 3.82, P 3.74, Y 3.27, C 4.29, I 4.11, W 3.17
K2: G 3.44, W 3.67, M 2.93, Y 3.17, R 3.27, C 3.62, P 4.08, N 4.05, A 3.94, F 3.44, H 3.65, I 3.72, D 4.26, T 3.52, S 3.95, E 3.9, V 3.86, L 3.32, Q 4.12
P4: T 3.44, H 3.56, S 3.99, R 4.31, E 3.88, N 3.58, V 3.19, L 3.28, D 4.31, C 3.74, G 3.99, M 3.45, A 3.79, Y 3.41, Q 3.48, F 3.44, W 2.96, I 3.57, K 3.53
E1: V 3.57, D 3.99, L 3.62, C 3.21, G 3.6, N 3.59, F 2.75, M 4.15, K 2.98, R 3.02, I 2.82, T 3.36, Q 3.87, Y 3.04, W 3.35, P 3.22, S 3.11, H 3.54, A 3.43
G6: K 3.52, R 3.07, D 3.88, M 3.39, Y 2.92, T 4.61, S 3.27, W 3.13, V 4, F 3.79, C 4.57, H 3.68, A 3.32, Q 3.16, L 3.92, N 3.36, E 4.09, P 4.37, I 3.17
